Here are results for five molecules from patent publication US20210253701A1 (Regeneron, published 2021).

By EC50 is commonly meant the midpoint of the concentration-response curve. Low values mean an effect from little substance, high ones a need for much substance. As a reminder, the Kd is the concentration at which binding is half-saturated. The low end stands for tighter binding, the high end for weaker binding.

Assay [1] deals with T1, human CD3 (cell surface-expressed) (human, UniProt P07766 23-207; P04234 22-171). Put plainly: cell-based or functional assay.
T1 sequence (P07766 23-207 limits assumed, chain 1 of 2): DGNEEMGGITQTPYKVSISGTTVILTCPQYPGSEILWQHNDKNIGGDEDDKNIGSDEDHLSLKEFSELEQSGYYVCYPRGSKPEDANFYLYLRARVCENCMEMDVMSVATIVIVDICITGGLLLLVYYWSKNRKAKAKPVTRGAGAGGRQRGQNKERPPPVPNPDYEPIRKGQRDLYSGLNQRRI
T1 sequence (P04234 22-171 limits assumed, chain 2 of 2): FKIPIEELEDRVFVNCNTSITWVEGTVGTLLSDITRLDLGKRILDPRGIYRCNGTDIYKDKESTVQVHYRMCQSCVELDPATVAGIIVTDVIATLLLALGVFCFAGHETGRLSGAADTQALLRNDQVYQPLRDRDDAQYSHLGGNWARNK
Assay [2] deals with human MUC16 on OVCAR3 cells (human). Put plainly: cell-based or functional assay.
The target in assay [3] is T1, human CD3 (cell surface-expressed). Description: FACS, Jurkat cells. A general note: In flow cytometry, cells or beads pass a laser one at a time.
Assay [4] addresses T2, human MUC16 on OVCAR3 cells (human).
T2 construct: Endogenous MUC16 of the OVCAR3 cell line; also called Mucin 16
Description: FACS, OVCAR3 (MUC16+) cells.

Assay [5] addresses T3, soluble heterodimeric hCD3ε/δ.mFc protein (human).
T3 construct: also called soluble human CD3; human CD3 heterodimeric protein
Put plainly: SPR 37 C, antigen-capture format.

A value given as a limit tells only on which side of the number the result lay.

T3 sequence (P07766 23-126, stated change not applied, chain 1 of 2): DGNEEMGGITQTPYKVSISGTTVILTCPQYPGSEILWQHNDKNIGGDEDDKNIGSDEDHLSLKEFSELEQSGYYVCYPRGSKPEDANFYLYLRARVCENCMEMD
T3 sequence (P04234 22-105, stated change not applied, chain 2 of 2, further chain): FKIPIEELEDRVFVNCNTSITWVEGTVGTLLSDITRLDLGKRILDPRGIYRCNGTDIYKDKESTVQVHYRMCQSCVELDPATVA

B1: BSMUC16/CD3-001 (bispecific antibody)
chain 1: QVQLVESGGGLVKPGGSLRLSCAASGFTFSNYYMSWVRQAPGKGLEWISYISGRGSTIFYADSVKGRITISRDNAKNSLFLQMNSLRAEDTAVYFCVKDRGGYSPYWGQGTLVTVSS
chain 2: EVQLVESGGGLVQPGRSLRLSCAASGFTFDDYSMHWVRQAPGKGLEWVSGISWNSGSKGYADSVKGRFTISRDNAKNSLYLQMNSLRAEDTALYYCAKYGSGYGKFYHYGLDVWGQGTTVTVSS
chain 3: not shown
On to B1, for which, in assay [1], the “T cell activation EC50” value is 0.00588 nM. In addition, in assay [2], the “OVCAR3 cell depletion EC50” value came to 0.0224 nM. The EC50 in assay [3] was determined as 3.21 nM; in assay [4] it was 1.2 nM.

B2: BSPSMA/CD3-400 (bispecific antibody)
chain 1: QVQLVESGGGVVQPGRSLRLSCAASGFTFSSYGMHWVRQAPGKGLEWVAVISYAGNNKYYADSVKGRFTVSRDNSKKTLYLQMNSLRSEDTAVYYCAKDSYYDFLTDPDVLDIWGQGTMVTVSS
chain 2: EVQLVESGGGLVQPGRSLRLSCAASGFTFDDYAMHWVRQAPGKGLEWVSGISWNSGSIGYADSVKGRFTISRDNAKNSLYLQMNSLRAEDTALYYCAKDGSGYGKFYYYGMDVWGQGTTVTVSS
chain 3: DIQMTQSPSSLSASVGDSVTITCRASQSINNYLNWYQQKPGKAPKLLIYTASSLLSGVPSRFSGSGSGTDFTLTISGLHPEDFATYFCQQSFSTPPITFGQGTRLDIK
In the case of B2, the equilibrium dissociation constant (Kd) in assay [5] is more than 500 nM.

B3: BSMUC16/CD3-002 (bispecific antibody)
chain 1: QVQLVESGGGLVKPGGSLRLSCAASGFTFSNYYMSWVRQAPGKGLEWISYISGRGSTIFYADSVKGRITISRDNAKNSLFLQMNSLRAEDTAVYFCVKDRGGYSPYWGQGTLVTVSS
chain 2: EVQLVESGGGLVQPGRSLRLSCAASGFTFDDYSMHWVRQAPGKGLEWVSGISWNSGSIGYADSVKGRFTISRDNAKNSLYLQMNSLRAEDTALYYCAKDGSGYGKFYYYGMDVWGQGTTVTVSS
chain 3: not shown
As to B3, the “T cell activation EC50” value in assay [1] came out at 0.0101 nM. Also, in assay [2], the “OVCAR3 cell depletion EC50” value came out at 0.0306 nM. This molecule returned an EC50 in assay [4] of 2.69 nM.

B4: BSPSMA/CD3-1800 (bispecific antibody)
chain 1: QVQLVESGGGVVQPGRSLRLSCAASGFTFSSYGMHWVRQAPGKGLEWVAVISYAGNNKYYADSVKGRFTVSRDNSKKTLYLQMNSLRSEDTAVYYCAKDSYYDFLTDPDVLDIWGQGTMVTVSS
chain 2: EVQLVESGGGLVQPGRSLRLSCAASGFTFDDYSMHWVRQAPGKGLEWVSGISWNSGSIGYADSVKGRFTISRDNAKNSLYLQMNSLRAEDTALYYCAKDGSGYGKFYYYGLDVWGQGTTVTVSS
chain 3: DIQMTQSPSSLSASVGDSVTITCRASQSINNYLNWYQQKPGKAPKLLIYTASSLLSGVPSRFSGSGSGTDFTLTISGLHPEDFATYFCQQSFSTPPITFGQGTRLDIK
In turn, B4 showed a dissociation constant (Kd) in assay [5] of more than 500 nM.

B5: BSPSMA/CD3-004 (bispecific antibody)
chain 1: QVQLVESGGGVVQPGRSLRLSCAASGFTFSSYGMHWVRQAPGKGLEWVAVISYAGNNKYYADSVKGRFTVSRDNSKKTLYLQMNSLRSEDTAVYYCAKDSYYDFLTDPDVLDIWGQGTMVTVSS
chain 2: EVQLVESGGGLVQPGRSLRLSCAASGFTFDDYSMHWVRQAPGKGLEWVSGISWNSGSIGYADSVKGRFTISRDNAKNSLYLQMNSLRAEDTALYYCAKDGSGYGKFYYYGMDVWGQGTTVTVSS
chain 3: DIQMTQSPSSLSASVGDSVTITCRASQSINNYLNWYQQKPGKAPKLLIYTASSLLSGVPSRFSGSGSGTDFTLTISGLHPEDFATYFCQQSFSTPPITFGQGTRLDIK
Turning to B5, the equilibrium dissociation constant (Kd) in assay [5] was more than 500 nM.
